Test results as given in IntAct's records for PubMed 21642953.

How the values were obtained:
tbb2b_human TUBB2B = tbb2b_human TUBB2B (UniProt Q9BVA1)
dcc_human DCC = dcc_human DCC (UniProt P43146)
Sequence of dcc_human DCC (P43146 whole entry): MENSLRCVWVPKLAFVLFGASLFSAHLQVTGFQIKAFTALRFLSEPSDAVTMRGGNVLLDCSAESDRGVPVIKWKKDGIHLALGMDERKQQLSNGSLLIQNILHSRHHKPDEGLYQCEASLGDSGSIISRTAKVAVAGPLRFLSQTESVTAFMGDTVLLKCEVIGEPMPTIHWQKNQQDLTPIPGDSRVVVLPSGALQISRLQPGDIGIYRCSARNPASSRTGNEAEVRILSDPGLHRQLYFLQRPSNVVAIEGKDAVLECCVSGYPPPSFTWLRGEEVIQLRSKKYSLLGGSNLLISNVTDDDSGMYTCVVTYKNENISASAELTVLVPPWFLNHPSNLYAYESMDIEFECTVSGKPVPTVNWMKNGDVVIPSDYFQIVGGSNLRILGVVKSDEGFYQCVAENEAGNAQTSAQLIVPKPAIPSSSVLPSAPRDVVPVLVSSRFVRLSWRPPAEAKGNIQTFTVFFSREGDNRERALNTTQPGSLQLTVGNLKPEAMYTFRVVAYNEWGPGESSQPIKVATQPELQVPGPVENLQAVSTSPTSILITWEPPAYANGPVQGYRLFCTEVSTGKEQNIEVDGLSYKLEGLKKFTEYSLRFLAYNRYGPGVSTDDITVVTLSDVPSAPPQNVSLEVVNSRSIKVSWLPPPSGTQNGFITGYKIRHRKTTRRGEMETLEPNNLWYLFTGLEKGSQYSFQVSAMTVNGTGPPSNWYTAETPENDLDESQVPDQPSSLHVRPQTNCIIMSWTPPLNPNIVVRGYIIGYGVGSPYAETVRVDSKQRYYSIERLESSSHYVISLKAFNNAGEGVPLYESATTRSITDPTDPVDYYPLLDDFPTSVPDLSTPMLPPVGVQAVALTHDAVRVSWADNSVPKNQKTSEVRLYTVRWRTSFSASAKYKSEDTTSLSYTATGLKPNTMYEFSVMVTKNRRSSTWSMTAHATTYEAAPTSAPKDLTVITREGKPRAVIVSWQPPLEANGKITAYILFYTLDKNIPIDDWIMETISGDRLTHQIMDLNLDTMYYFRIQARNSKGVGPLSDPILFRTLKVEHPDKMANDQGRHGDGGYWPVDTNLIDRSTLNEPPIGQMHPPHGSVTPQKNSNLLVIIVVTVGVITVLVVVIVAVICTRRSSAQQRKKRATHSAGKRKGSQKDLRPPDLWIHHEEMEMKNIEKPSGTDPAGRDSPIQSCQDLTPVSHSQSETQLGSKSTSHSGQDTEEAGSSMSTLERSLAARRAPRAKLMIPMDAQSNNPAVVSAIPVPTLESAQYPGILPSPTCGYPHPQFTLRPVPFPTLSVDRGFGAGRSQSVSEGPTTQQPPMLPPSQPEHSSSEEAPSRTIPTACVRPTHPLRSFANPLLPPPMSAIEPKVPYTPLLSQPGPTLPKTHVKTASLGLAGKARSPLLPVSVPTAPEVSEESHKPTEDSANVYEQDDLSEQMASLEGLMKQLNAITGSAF

Sequence of tbb2b_human TUBB2B (Q9BVA1 whole entry): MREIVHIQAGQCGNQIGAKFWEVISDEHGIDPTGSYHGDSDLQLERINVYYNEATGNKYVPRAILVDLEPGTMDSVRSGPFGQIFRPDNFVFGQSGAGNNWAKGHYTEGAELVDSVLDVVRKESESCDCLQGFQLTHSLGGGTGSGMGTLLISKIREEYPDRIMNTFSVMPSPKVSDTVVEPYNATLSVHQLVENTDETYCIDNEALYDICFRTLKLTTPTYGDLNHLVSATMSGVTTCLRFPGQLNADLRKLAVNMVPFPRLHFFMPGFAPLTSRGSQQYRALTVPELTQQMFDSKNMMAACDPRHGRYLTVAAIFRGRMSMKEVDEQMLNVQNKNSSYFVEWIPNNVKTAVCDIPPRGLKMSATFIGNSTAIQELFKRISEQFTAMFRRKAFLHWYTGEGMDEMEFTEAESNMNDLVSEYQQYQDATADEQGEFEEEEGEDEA

| effect of a mutation on the interaction (tbb2b_human TUBB2B) | effect of a mutation on the interaction (dcc_human DCC) | Substance |
| --- | --- | --- |
| disrupting interaction | – | Unconventional myosin-X (Homo sapiens), Q9HD67 K1650D |
| – | disrupting interaction | Unconventional myosin-X (Homo sapiens), Q9HD67 F2002K |
| disrupting interaction | – | Unconventional myosin-X (Homo sapiens), Q9HD67 K1647D |
